Where a chain is given by its changes, count along the chain named.
T1: Homo sapiens CGRP-alpha (Calcitonin Gene Related Peptide alpha) (Homo sapiens, -NH2 at the C-terminal end as printed ('wherein the N-terminal phenylalanine is amidated'); 125I radiolabeled in the receptor binding assay of Example 6)
T1 construct: 37-residue synthetic peptide from American Peptides / Bachem; Coated directly on the plate in the ELISA of recombinant antibodies; also called CGRPα; human CGRPα
T1 peptide: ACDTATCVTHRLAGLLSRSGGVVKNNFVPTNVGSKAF

B1: Antibody Ab1 (antibody, human IgG1, kappa, N297A, V domains shown)
VH: QSLEESGGRLVTPGTPLTLTCTVSGLDLSSYYMQWVRQAPGKGLEWIGVIGINDNTYYASWAKGRFTISRASSTTVDLKMTSLTTEDTATYFCARGDIWGPGTLVTVSS
VL: QVLTQTASPVSAAVGSTVTINCQASQSVYDNNYLAWYQQKPGQPPKQLIYSTSTLASGVSSRFKGSGSGTQFTLTISDLECADAATYYCLGSYDCSSGDCFVFGGGTEVVVKR
notes: Chimeric (rabbit variable, human gamma-1/kappa constant) full-length anti-CGRP antibody
B2: Antibody Ab2 (antibody, human IgG1, kappa, N297A)
heavy: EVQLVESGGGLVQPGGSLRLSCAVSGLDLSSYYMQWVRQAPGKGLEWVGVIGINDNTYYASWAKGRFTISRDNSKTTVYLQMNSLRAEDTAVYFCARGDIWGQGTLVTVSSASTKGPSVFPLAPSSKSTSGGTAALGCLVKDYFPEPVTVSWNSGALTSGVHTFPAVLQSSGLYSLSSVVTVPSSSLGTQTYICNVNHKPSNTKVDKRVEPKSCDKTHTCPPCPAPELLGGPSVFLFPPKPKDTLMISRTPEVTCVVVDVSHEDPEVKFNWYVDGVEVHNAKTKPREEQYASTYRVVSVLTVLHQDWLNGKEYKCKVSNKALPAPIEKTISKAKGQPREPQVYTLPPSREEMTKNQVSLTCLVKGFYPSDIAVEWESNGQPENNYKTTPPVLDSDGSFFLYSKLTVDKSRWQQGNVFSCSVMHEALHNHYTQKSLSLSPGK
light: QVLTQSPSSLSASVGDRVTINCQASQSVYDNNYLAWYQQKPGKVPKQLIYSTSTLASGVPSRFSGSGSGTDFTLTISSLQPEDVATYYCLGSYDCSSGDCFVFGGGTKVEIKRTVAAPSVFIFPPSDEQLKSGTASVVCLLNNFYPREAKVQWKVDNALQSGNSQESVTEQDSKDSTYSLSSTLTLSKADYEKHKVYACEVTHQGLSSPVTKSFNRGEC
notes: Humanized full-length anti-CGRP antibody
B3: Antibody Ab3 (antibody, human IgG1, kappa, N297A)
heavy: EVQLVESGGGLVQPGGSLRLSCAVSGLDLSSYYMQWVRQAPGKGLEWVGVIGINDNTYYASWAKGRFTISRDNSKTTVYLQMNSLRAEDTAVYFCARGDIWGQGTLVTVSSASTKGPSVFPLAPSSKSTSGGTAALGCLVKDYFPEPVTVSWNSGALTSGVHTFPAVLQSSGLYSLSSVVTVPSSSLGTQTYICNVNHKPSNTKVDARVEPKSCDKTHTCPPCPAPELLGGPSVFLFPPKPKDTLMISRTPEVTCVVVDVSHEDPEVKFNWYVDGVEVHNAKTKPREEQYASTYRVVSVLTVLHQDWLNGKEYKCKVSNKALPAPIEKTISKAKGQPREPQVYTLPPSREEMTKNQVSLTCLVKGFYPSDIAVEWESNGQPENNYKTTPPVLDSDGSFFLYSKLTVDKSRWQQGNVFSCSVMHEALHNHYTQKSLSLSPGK
light: B2 light
B4: Antibody Ab5 (antibody, human IgG1, kappa, N297A)
heavy: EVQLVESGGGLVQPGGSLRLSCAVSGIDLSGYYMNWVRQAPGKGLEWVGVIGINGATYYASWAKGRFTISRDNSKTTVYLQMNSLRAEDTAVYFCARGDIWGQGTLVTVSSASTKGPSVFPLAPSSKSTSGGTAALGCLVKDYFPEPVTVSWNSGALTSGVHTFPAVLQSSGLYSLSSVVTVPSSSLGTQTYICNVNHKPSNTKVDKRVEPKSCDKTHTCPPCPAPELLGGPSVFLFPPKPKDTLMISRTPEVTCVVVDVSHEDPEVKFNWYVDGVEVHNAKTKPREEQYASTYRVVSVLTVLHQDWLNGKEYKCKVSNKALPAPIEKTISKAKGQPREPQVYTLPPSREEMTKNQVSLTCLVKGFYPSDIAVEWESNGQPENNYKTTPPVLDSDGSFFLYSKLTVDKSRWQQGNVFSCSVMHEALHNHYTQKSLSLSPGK
light: B2 light with D30H, N32T, S51D, T52A, S96T, S97N
B5: Antibody Ab6 (antibody, human IgG1, kappa, N297A)
heavy: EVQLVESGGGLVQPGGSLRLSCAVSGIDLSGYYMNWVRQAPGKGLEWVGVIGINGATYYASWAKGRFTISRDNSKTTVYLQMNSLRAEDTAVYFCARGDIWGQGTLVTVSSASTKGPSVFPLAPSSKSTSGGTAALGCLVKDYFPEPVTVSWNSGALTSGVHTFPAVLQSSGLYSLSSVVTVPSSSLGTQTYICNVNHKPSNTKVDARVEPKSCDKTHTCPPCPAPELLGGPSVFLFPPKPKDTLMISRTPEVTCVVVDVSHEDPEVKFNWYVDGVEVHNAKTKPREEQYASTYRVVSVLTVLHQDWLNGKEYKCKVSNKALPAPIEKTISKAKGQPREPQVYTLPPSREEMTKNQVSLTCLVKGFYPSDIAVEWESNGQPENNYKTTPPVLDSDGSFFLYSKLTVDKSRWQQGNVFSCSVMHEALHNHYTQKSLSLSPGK
light: B2 light with D30H, N32T, S51D, T52A, S96T, S97N
notes: as for B2
B6: Antibody Ab8 (antibody, human IgG1, kappa, N297A, V domains shown)
VH: EVQLVESGGGLVQPGGSLRLSCAVSGIDLSNHYMQWVRQAPGKGLEWVGVVGINGRTYYASWAKGRFTISRDNSKTTVYLQMNSLRAEDTAVYFCARGDIWGQGTLVTVSS
VL: QVLTQSPSSLSASVGDRVTINCQASQSVYNYNYLAWYQQKPGKVPKQLIYSTSTLASGVPSRFSGSGSGTDFTLTISSLQPEDVATYYCLGSYDCSTGDCFVFGGGTKVEIKR
notes: as for B2
B7: Antibody Ab10 (antibody, human IgG1, kappa, N297A)
heavy: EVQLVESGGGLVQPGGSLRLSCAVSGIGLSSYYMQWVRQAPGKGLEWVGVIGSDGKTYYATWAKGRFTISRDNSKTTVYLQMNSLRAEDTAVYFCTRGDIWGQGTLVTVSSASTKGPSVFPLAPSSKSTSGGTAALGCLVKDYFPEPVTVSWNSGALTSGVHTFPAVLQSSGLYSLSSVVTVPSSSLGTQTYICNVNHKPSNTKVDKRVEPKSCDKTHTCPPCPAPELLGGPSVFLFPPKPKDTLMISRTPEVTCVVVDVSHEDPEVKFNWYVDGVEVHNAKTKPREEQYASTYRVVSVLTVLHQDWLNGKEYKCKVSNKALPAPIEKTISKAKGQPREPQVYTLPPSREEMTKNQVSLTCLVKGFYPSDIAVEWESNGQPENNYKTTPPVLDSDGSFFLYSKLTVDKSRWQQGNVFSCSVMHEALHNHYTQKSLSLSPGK
light: B2 light with S27N, D30N, S97R
notes: as for B2
B8: Antibody Ab12 (antibody, human IgG1, kappa, N297A, V domains shown)
VH: B6 VH with L29V, S30T, H32Y, V51I, I53V, R56K, T57R
VL: B6 VL with Q23R, N30Y, Y31N, T97N
notes: as for B2
B9: Antibody Ab14 (antibody, human IgG1, kappa, N297A)
heavy: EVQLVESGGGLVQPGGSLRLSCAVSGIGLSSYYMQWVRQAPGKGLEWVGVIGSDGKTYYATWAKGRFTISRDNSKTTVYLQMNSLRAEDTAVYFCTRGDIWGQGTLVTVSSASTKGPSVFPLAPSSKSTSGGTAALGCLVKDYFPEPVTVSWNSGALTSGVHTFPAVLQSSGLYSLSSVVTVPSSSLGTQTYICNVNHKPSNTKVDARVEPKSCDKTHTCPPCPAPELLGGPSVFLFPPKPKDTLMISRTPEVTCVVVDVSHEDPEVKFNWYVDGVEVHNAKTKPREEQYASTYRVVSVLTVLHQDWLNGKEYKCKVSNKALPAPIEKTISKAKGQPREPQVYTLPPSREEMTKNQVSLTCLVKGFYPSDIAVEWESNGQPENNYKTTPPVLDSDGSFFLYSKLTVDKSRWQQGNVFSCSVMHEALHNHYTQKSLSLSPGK
light: B2 light with S27N, D30N, S97R
notes: as for B2
B10: Antibody Ab11 (antibody, human IgG1, kappa, N297A, V domains shown)
VH: QSLEESGGRLVTPGGSLTLTCTVSGIDVTNYYMQWVRQAPGKGLEWIGVIGVNGKRYYASWAKGRFTISKTSSTTVDLKMTSLTTEDTATYFCARGDIWGPGTLVTVSS
VL: B1 VL with A12P, Q23R, D30Y, L79V, E80Q, A82D, S97N
notes: Chimeric full-length anti-CGRP antibody; also called Abll
B11: Antibody Ab4 (antibody, human IgG1, kappa, N297A, V domains shown)
VH: B1 VH with T22S, L26I, S30G, Q34N, D54G, N55A, R70K, A71T
VL: QVLTQTPSPVSAAVGSTVTINCQASQSVYHNTYLAWYQQKPGQPPKQLIYDASTLASGVPSRFSGSGSGTQFTLTISGVQCNDAAAYYCLGSYDCTNGDCFVFGGGTEVVVKR
B12: Antibody Ab7 (antibody, human IgG1, kappa, N297A, V domains shown)
VH: QEQLKESGGRLVTPGTSLTLTCTVSGIDLSNHYMQWVRQAPGKGLEWIGVVGINGRTYYASWAKGRFTISRTSSTTVDLKMTRLTTEDTATYFCARGDIWGPGTLVTVSS
VL: B1 VL with D30N, N31Y, L79V, E80Q, A82D, S97T
notes: Chimeric full-length anti-CGRP antibody
B13: Antibody Ab9 (antibody, human IgG1, kappa, N297A, V domains shown)
VH: QSLEESGGRLVTPGTPLTLTCTVSGIGLSSYYMQWVRQSPGRGLEWIGVIGSDGKTYYATWAKGRFTISKTSSTTVDLRMASLTTEDTATYFCTRGDIWGPGTLVTVSS
VL: B1 VL with A7P, S27N, D30N, K64R, L79V, E80Q, A82D, S97R
notes: as for B12

Target: T1, Homo sapiens CGRP-alpha (Calcitonin …)
Assay: ELISA, CGRPα coated on plate, anti-human IgG Fc-HRP detection
Method: To characterize recombinant expressed antibodies for their ability to bind to human-CGRPα antibody-containing solutions were tested by ELISA. All incubations were done at room temperature. Briefly, Immulon IV plagtes (Thermo Scientific), were coated with a CGRPα containing solution (1 ut/mL in PBS) for 2 hours. CGRPα-coated plates were then washed three times in wash buffer (PBS, 0.05% Tween-20). The plates were then blocked using a blocking solution (PBS, 0.5% fish skin gelatin, 0.05% Tween-20) for approximately one hour. The blocking solution was then removed and the plates were then incubated with a dilution series of the antibody being tested for approximately one hour. At the end of this incubation, the plate was washed three times with wash buffer and further incubated with a secondary antibody containing solution (Peroxidase conjugated affinipure F(ab′)2 fragment goat anti-human IgG, Fc fragment specific (Jackson Immunoresearch) for approximately 45 minutes and washed three times. At that point a substrate solution (TMB peroxidase substrate, BioFx) and incubated for 3 to 5 minutes in the dark. The reaction was stopped by addition of a HCl containing solution (0.5M) and the plate was read at 450 nm in a plate-reader.

Binding result, binds:
B1
B2
B3
B4
B5
B6
B7
B8
B9
B10
B11
B12
B13
